Experimental data: publication doi:10.1101/2024.11.13.623522 (bioRxiv, 2024)

Biological target: T1, GST-tagged Shu (Shu-GST) (Drosophila, UniProt Q9W1I9 1-455)
T1 sequence (looked up): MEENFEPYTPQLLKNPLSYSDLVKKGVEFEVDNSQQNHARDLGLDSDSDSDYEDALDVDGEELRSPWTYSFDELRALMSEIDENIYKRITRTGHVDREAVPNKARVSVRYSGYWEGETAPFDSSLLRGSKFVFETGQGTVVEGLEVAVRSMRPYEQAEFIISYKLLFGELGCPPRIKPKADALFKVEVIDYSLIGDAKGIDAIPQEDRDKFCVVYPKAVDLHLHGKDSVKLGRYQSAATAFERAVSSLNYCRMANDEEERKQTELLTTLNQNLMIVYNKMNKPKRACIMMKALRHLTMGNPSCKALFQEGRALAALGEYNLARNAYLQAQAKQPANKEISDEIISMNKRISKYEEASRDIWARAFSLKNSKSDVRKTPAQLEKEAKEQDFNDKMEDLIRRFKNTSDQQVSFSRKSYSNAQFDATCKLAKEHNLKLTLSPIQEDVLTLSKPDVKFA
Assay: pull-down

B1: FLAG-tagged Armi S769I mutant, recombinant (natural protein, Drosophila, UniProt Q6J5K9 1-1188, looked up)
chain: MFTYVSKFFTNPDRNREDILESLDRENSFLDQKLMEEKMDQQLKANPNEINGVLSNKIAELTHGLSEMDVSKESSCTARKGVITSLDGDRGVIDKDVLFETKVAEDIILDLHVGCVVEYLTFTTGEAMRVVKVKSILEHSWEDTSQKEIEKAVDNLKNEKPTFFNTETRSVLGLISQRLASSIDVETEYGQLTVELDNIEMNFIPTNGDRVRLECNIQLDDGFVDKQGEILEVTKLFPTRIQEGEKCIVERVYVHMVVLGPETYILKTDLPTGTDLHLGDIVLADLIECQYSKFTRRAIKITPLEKNFGATKLTQQSSMGSSGSGKAVTVTGVNRFITAELWQKESVSLKLTNNLNRTLRLESITVCNDSESQLSVVSPLESKEISSGSEITVTFEIHTQFLGEAIEKYVLNFDLLKVRRVFTVIVCKTKEEVAEAEKRMIAAEALMAPGRNSQERSRFYANQVWCNKVDVIPGQQIVTKRRFVALRLGCFEVPKELRQICLTSERRQEMIKAIEQHYSFLTEPLSIKTYMHRFRLLLHLEEIECFVNFRNYDRDRAHFLRDGEFLTLQIENLAERRPSLVIGDTLRVINPWSDPDSQTTKSYEGIIHKVLFDRILLKFHSSFQEKYNGEDYRLEFYFSRYSFRKQHHAISKIVGVMGEDFLFPSKVTKRENPQLDVYMKDDDMYLYDSKLEWYNQSLNSIQKRAVFNILRGEAENIPYVLFGPPGSGKTMTLIETLLQLVRNLPGARILVGTPSNSSADLVTKRLIDIKALLQGDFIRLVSYNQVEKDLIPPEIMSYCATSDVGAVGSCEDKMMVTESGLKLRCQAKFIGTHRITISTCTTLGNFLQLGFPAGHFTHVLFDEAGQCTEPETMVPIVMLTKKRSQVVLSGDPRQLQSIVTSRIASKMGFSISFLERLLERSPYRKDLQRFPESSGYNPLVLTKLLYNYRALPSIMSIYSRLFYDDELIPVLSEKDSRESRLLSKLRCVFESEKDIPQAHGTFFYGIIGENRQNNDSPSWFNPQEVREVFLMTIALYRANVTADQIGIITPYQKQVKMLRSMFIGTDVVMPKIGSVEEFQGQERDIILISTVRSSEEILRMDARFSLGFVRCSKRLNVAVSRARAMMIIFGNPHLLAVDECWRQLILFCVKNNAYFGCDLPQMVINQKDEVPVCLETFVPSLNTTDDLN
pull-down efficiency relative to Armi WT: ~1.5 fold
